Assays:
[1] = target: Assembled ternary SNARE complex (syntaxin1A 1-263 : SNAP25 : VAMP2 1-96) (UniProt P32851)
[2] = target: K85A-R86S-K87A mutant rat VAMP2 cytoplasmic portion 1-96 (UniProt P63045)
[3] = tested on: Native guinea pig VAMP2 in isolated pancreatic zymogen granules
[4] = tested on: Native guinea pig VAMP8 in isolated pancreatic zymogen granules
[5] = target: T1, Recombinant human VAMP8 (endobrevin) cytoplasmic portion 1-74 (UniProt Q9BV40)
T1 sequence: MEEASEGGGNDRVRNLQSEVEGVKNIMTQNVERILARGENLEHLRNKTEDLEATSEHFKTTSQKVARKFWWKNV

[6] = target: Recombinant wild type rat SNAP25 full length 1-206 (UniProt P60881)
Recombinant wild type rat SNAP25 full length 1-206, sequence (P60881 whole entry, looked up, tested part not stated): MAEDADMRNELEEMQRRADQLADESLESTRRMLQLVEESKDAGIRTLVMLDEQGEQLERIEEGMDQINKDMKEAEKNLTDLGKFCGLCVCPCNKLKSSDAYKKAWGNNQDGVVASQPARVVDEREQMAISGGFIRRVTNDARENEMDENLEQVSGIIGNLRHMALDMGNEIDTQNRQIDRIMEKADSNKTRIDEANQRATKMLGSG

Assembled ternary SNARE complex (syntaxin1A 1-263 : SNAP25 : VAMP2 1-96), sequence (P32851 whole entry, looked up, tested part not stated, one chain of several): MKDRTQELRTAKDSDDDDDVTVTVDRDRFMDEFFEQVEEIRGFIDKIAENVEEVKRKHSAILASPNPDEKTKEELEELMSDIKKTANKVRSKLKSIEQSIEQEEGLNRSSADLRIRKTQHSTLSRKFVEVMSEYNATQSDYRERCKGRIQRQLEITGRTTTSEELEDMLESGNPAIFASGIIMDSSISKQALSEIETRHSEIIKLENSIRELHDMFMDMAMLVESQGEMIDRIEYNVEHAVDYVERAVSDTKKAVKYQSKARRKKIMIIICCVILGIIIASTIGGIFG
K85A-R86S-K87A mutant rat VAMP2 cytoplasmic portion 1-96, sequence (P63045 1-96 K85A/R86S/K87A): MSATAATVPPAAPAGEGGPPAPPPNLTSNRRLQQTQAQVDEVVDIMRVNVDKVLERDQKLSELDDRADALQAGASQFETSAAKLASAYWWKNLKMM

Fraction ν of Tityus serrulatus venom (Fx ν metalloprotease)
proteolytic cleavage (PAGE staining density, 60 min) [1]: a clear change in staining density indicating the occurrence of cleavage by Fx ν of both the assembled complex (not boiled, lane 3) and the unassembled SNARE complex proteins (boiled, lane 4)
proteolytic cleavage (PAGE, reverse phase chromatography, sequencing) [2]: these substitutions prevented the previously observed cleavage
proteolytic cleavage (Western blot of isolated zymogen granules) [3]: whole TSV or Fx ν rapidly cleave VAMP2 (upper panel) even in short incubation periods (5 and 30 min)
proteolytic cleavage (Western blot of isolated zymogen granules) [4]: VAMP8 is also a proteolytic target in ZG during incubation with Fx ν
proteolytic cleavage (transblot, mass spectrometry) [5]: is cleaved upon exposure to Fx ν
proteolytic cleavage (transblot) [6]: is a t-SNARE that is also cleaved by Fx ν
